The text below walks through data of patent US20140208457, “Nuclease Fusion Protein and Uses Thereof” (BASF PLANT SCIENCE COMPANY GMBH, published 2014).

The series has as its target T1, P(T46G,Y94F)-L(6)-Ss* PvuII/I-SceI fusion protein (artificial (Proteus vulgaris PvuII; …).
T1 chain: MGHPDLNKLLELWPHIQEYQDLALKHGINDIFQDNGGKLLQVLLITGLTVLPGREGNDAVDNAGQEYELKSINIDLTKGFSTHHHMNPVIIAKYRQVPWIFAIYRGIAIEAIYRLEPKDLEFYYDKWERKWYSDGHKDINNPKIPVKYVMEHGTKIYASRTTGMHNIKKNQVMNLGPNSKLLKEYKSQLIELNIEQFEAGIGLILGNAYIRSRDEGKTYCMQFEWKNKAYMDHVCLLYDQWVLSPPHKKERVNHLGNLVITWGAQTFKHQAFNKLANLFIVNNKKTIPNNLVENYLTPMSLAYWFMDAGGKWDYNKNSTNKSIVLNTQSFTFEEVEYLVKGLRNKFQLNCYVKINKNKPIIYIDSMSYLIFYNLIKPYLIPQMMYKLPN
The series can be described thus: EMSA; 1-150 nM enzyme, 2 nM DNA, KG buffer without Mg, room temperature. The conditions noted are these: tags: C-terminal Strep-tag (vector pASK-IBA63b-plus), chain copies: 2 (inferred, PvuII homodimer). As to the method:
For the determination of binding constants of the fusion enzymes, EMSAs with radioactive labeled PCR-fragments were done. The shift fragments were created via PCR using [α³²P] dATP. One fragment contained the addressed site (S6P6S; A), just an I-SceI site (S; B) or just a PvuII site (P; C). 2 nM of the radiolabeled substrate were incubated with fusion enzyme at concentrations ranging from 1-150 nM in optimized KG Buffer without magnesium for 30 min at room temperature. After adding 1 μl 87% glycerol the samples were loaded onto a 6% polyacrylamid Tris-Acetate (pH 8.5) gel and run for 2 h at 10V/cm. The bands were visualized using the InstantImager system (Packard).
(In general: A gel shift assay detects complexes by their altered migration in electrophoresis.)

B1: S, I-SceI site only (dsDNA)
DNA 1: TAGGGATAACAGGGTAAT
DNA 2: ATTACCCTGTTATCCCTA
Take B1: the binding result (label: 32P (PCR fragment)) is listed as “no binding”.

B2: S6P6S tripartite site I-SceI-PvuII-I-SceI (dsDNA)
DNA 1: TAGGGATAACAGGGTAATGGTACTCAGCTGATTCATATTACCCTGTTATCCCTA
DNA 2: TAGGGATAACAGGGTAATATGAATCAGCTGAGTACCATTACCCTGTTATCCCTA
With B2, the binding result (label: 32P (EMSA PCR fragment)) was “binds”.
